Positions count from the first letter of the chain named. Names and notes keep the numbering of the source.
B1: bCD38 (bovine CD38/NAD+glycohydrolase) (Bos taurus) (protein)
chain: YKWHYSGLNRWHGAGSTADFQKIIQERCDTYTQTIRPGSRSRNCQAIRQAFMSAFISKDPCKATKEDYNSLINLAPPTVPCGQQVFWSKTKELAHEYAKRRRLMTLEDTLLGYLADGLRWCGEPGSSDLNIWSCPDWRKDCRTNYLSVFWEVLSERFAESACNTVRVVLNGSLENAFDSMSIFGRVEAPNLRPQVELEAWLVHDTGKPPSDSCSGSSIRKLKSILDGRNVKFRCMDNLSRDQFLQRS
notes: soluble ecto-domain residues 32-278 (first 31 residues removed), alpha-factor secretion signal, Pichia pastoris GS115 or X33, mono-N-glycosylated at Asn201, back-to-back homodimer in crystal
B2: bCD38 (bovine CD38/NAD+glycohydrolase) (Bos taurus; E218Q) (protein)
chain: B1 chain with E187Q
notes: as for B1
B3: bCD38 (bovine CD38/NAD+glycohydrolase) (Bos taurus; S185A) (protein)
chain: B1 chain with S154A
notes: as for B1
B4: bCD38 (bovine CD38/NAD+glycohydrolase) (Bos taurus; R216A) (protein)
chain: B1 chain with R185A
notes: as for B1
B5: bCD38 (bovine CD38/NAD+glycohydrolase) (Bos taurus; K120A) (protein)
chain: B1 chain with K89A
notes: as for B1
B6: bCD38 (bovine CD38/NAD+glycohydrolase) (Bos taurus; W168A) (protein)
chain: B1 chain with W137A
notes: as for B1

Substrate: NC(=O)c1ccc[n+]([C@@H]2O[C@H](COP(=O)(O)OP(=O)(O)OC[C@H]3O[C@@H](n4cnc5c(N)ncnc54)[C@H](O)[C@@H]3O)[C@@H](O)[C@H]2O)c1
Assay: radiometric HPLC assay, initial rates, Michaelis-Menten fit
Assay type: biochemical, Bos taurus
Details: 10 mM potassium phosphate pH 7.4, 37°C, 14C-labelled NAD+ tracer
Excerpt: radiometric HPLC assay, initial rates, Michaelis-Menten fit on bCD38 (bovine CD38/NAD+glycohydrolase)

Row | Protein | Km | kcat | kcat/Km
1 | B1 | 17.1 ± 0.3 µM | 57.9 ± 1.9 s⁻¹ | 3.38e+06 ± 130000 M⁻¹ s⁻¹
2 | B2 | 24.7 ± 5.7 µM | 0.03 ± 0.002 s⁻¹ | 1210 ± 300 M⁻¹ s⁻¹
3 | B3 | 18.7 ± 2.8 µM | 38.2 ± 1.3 s⁻¹ | 2.04e+06 ± 310000 M⁻¹ s⁻¹
4 | B4 | 22.9 ± 3.4 µM | 25.4 ± 1.1 s⁻¹ | 1.1e+06 ± 170000 M⁻¹ s⁻¹
5 | B5 | 27.7 ± 3.4 µM | 47.1 ± 2.1 s⁻¹ | 1.7e+06 ± 220000 M⁻¹ s⁻¹
6 | B6 | 24.6 ± 4.2 µM | 19.6 ± 0.9 s⁻¹ | 800000 ± 140000 M⁻¹ s⁻¹

Reference: article PMC3329556, “Insights into the Mechanism of Bovine CD38/NAD+Glycohydrolase from the X-Ray Structures of Its Michaelis Complex and Covalently-Trapped Intermediates” (PLoS ONE, 2012)
